Laboratory results as given in the Human Domainome abundance scans (Beltran et al. 2025).
± gives the uncertainty stated by the source.

B1: Cold shock protein CspB, residues 1 to 66; numbered along this chain, P41016 (parent)
chain: MQRGKVKWFNNEKGYGFIEVEGGSDVFVHFTAIQGEGFKTLEEGQEVSFEIVQGNRGPQAANVVKL

Variants of: B1
Test: abundance fitness (aPCA) (normalised: wild type 0, dead -1); higher = more abundant; growth selection in yeast, the domain comes from the species named
Settings: Bacillus caldolyticus

Variant | abundance fitness
K39H | -0.08 ± 0.064
K39T | -0.103 ± 0.04
K39V | -0.092 ± 0.038
K39S | -0.072 ± 0.03
K39E | -0.114 ± 0.06
K39A | -0.013 ± 0.049
K39R | -0.003 ± 0.037
K39Q | -0.071 ± 0.044
N55L | -0.035 ± 0.11
N55W | 0.002 ± 0.22
N55V | 0.005 ± 0.099
N55Q | -0.042 ± 0.18
V64M | -0.064 ± 0.066
V64W | -0.042 ± 0.053
V64S | -0.019 ± 0.04
V64F | 0.011 ± 0.046
F38Y | -0.009 ± 0.057
F38D | -0.12 ± 0.054
F38M | -0.075 ± 0.046
F38G | -0.048 ± 0.032
F38T | -0.119 ± 0.064
V20P | 0.018 ± 0.041
V20Q | 0.046 ± 0.057
V20F | -0.092 ± 0.056

Variant | abundance fitness
V20K | 0.055 ± 0.056
E50F | -0.029 ± 0.051
E50Q | 0 ± 0.052
E50C | -0.007 ± 0.053
E50H | -0.07 ± 0.076
E50P | -0.964 ± 0.11
E50M | -0.017 ± 0.058
V63K | -0.721 ± 0.071
V63W | -0.774 ± 0.07
V63G | -0.873 ± 0.062
V63A | -0.205 ± 0.044
V63Q | -1.13 ± 0.18
V63E | -0.782 ± 0.077
V63F | -1.01 ± 0.085
R56G | -0.081 ± 0.039
R56N | 0.018 ± 0.1
R56K | 0.003 ± 0.057
R56H | -0.069 ± 0.059
Q2G | -0.043 ± 0.039
Q2R | -0.006 ± 0.038
Q2V | 0.018 ± 0.039
Q2I | 0.028 ± 0.078
Q2F | 0.048 ± 0.069
G23T | 0.003 ± 0.052

Variant | abundance fitness
G23S | 0.011 ± 0.034
G23V | -0.021 ± 0.038
G23A | 0.03 ± 0.046
G23P | -0.011 ± 0.045
G23C | 0.029 ± 0.059
E12Y | 0.016 ± 0.045
E12S | 0.022 ± 0.032
E12A | 0.036 ± 0.033
E12Q | 0.017 ± 0.057
E12M | 0.004 ± 0.043
Q59G | -0.192 ± 0.035
Q59V | -0.029 ± 0.039
Q59T | -0.035 ± 0.042
Q59D | -0.429 ± 0.072
Q59F | 0.061 ± 0.056
Q59N | -0.082 ± 0.092
Q59R | 0.092 ± 0.033
Q59H | -0.02 ± 0.068
Q59Y | -0.012 ± 0.065
E36W | -0.017 ± 0.043
E36C | -0.042 ± 0.058
E36H | -0.047 ± 0.085
E36T | -0.006 ± 0.044
K13V | -0.044 ± 0.045

Variant | abundance fitness
K13G | -0.131 ± 0.043
K13R | -0.007 ± 0.037
G57R | -0.089 ± 0.036
G57V | -0.238 ± 0.029
G57Y | -0.127 ± 0.058
G57P | -0.278 ± 0.042
G14R | -0.062 ± 0.031
G14Q | -0.196 ± 0.044
G14M | -0.202 ± 0.053
G14Y | -0.445 ± 0.07
A32W | -0.351 ± 0.05
A32C | -0.083 ± 0.048
A32G | -0.02 ± 0.037
A32K | -0.044 ± 0.049
A32S | -0.032 ± 0.034
A32P | -0.507 ± 0.043
A32H | -0.099 ± 0.061
A32Q | 0.023 ± 0.055
G16N | -0.98 ± 0.11
G16A | -0.696 ± 0.046
G16I | -0.911 ± 0.07
G16M | -0.965 ± 0.077
A61M | 0.022 ± 0.21
A61Y | 0.015 ± 0.076

Variant | abundance fitness
A61C | -0.03 ± 0.047
A61I | 0.01 ± 0.079
A61W | -0.003 ± 0.058
Q53E | 0.003 ± 0.052
Q53T | 0.018 ± 0.044
Q53P | -0.092 ± 0.041
Q53N | 0.004 ± 0.071
Q53H | -0.046 ± 0.08
S24D | -0.002 ± 0.071
S24W | -0.031 ± 0.039
S24H | 0.007 ± 0.072
S24Y | -0.016 ± 0.084
S24F | -0.025 ± 0.058
S24C | -0.029 ± 0.041
S24R | 0.01 ± 0.029
I51T | -0.033 ± 0.048
I51W | -0.041 ± 0.039
I51L | -0.003 ± 0.03
I51R | -0.004 ± 0.034
I51A | -0.038 ± 0.042
T40N | -0.078 ± 0.048
T40Y | -0.037 ± 0.051
T40E | -0.027 ± 0.061
N11C | -0.051 ± 0.054

Variant | abundance fitness
N11D | 0.028 ± 0.06
N11E | -0.027 ± 0.068
N11M | -0.042 ± 0.048
F30C | -0.091 ± 0.052
F30P | -0.227 ± 0.05
F30G | -0.089 ± 0.04
F30M | -0.169 ± 0.047
F30Y | 0.011 ± 0.041
Q45F | -0.097 ± 0.082
Q45D | -0.104 ± 0.085
Q45T | -0.038 ± 0.05
Q45N | -0.005 ± 0.082
Q45S | -0.029 ± 0.038
F17W | -0.084 ± 0.042
F17E | -0.172 ± 0.049
F17G | -0.236 ± 0.037
F17T | -0.126 ± 0.053
G4W | -1.05 ± 0.067
G54P | -0.308 ± 0.062
G54H | 0.045 ± 0.11
G54I | -0.227 ± 0.13
G54V | -0.171 ± 0.068
G54K | -0.038 ± 0.098
E46V | -0.031 ± 0.037

Variant | abundance fitness
E46C | -0.046 ± 0.053
E46L | 0.014 ± 0.03
A60Q | -0.717 ± 0.064
A60E | -0.812 ± 0.073
A60S | -0.14 ± 0.034
M1W | -0.086 ± 0.072
M1E | 0.008 ± 0.053
M1T | -0.03 ± 0.057
M1D | -0.086 ± 0.085
M1R | -0.096 ± 0.047
M1I | -0.006 ± 0.075
M1F | -0.025 ± 0.065
N62I | -0.299 ± 0.39
F27I | -0.208 ± 0.056
F27R | -0.176 ± 0.028
F27Q | -0.208 ± 0.04
F27Y | 0.003 ± 0.054
H29K | -0.197 ± 0.13
H29N | -0.228 ± 0.12
H29T | -0.28 ± 0.12
G35T | -0.084 ± 0.054
G35E | -0.001 ± 0.038
G35F | -0.067 ± 0.059
